Source: patent US9307782B2, “Mannanase produced from Cellulosimicrobium sp. strain HY-13” (Korea Research Institute of Bioscience and Biotechnology, priority 2011, dated 2016)
Marks after values point to notes of the source that are not given here.

What was measured:
mannanase = assay: Effect of metal ions and chemicals on mannanase activity; assay type: biochemical, Cellulosimicrobium sp. HY-13; conditions: for effect on the enzyme activity / increase of catalytic activity of the mannanase: pH 6.0, 50° C.
[1] = Specific activity of mannanase (DNS reducing sugar assay); assay type: biochemical; conditions: pH 6.0, 50° C., 15 minutes
Method: To compare the mannanase activity to different matrixes, locust bean gum, ivory nut mannan and guar gum were used as matrixes and the activity of the purified mannanase to those matrixes were investigated.
The activity of β-1,4-mannanase was investigated by measuring the reduced amount of glucose isolated from locust bean gum using 3,5-dinitrosalicylic acid (DNS). At this time, D-mannose was used as a standard material. 0.5 Ml of a standard mixture composed of 0.5% locust bean gum was mixed with 0.05 Ml of an enzyme aqueous solution, followed by inducing biodegradation reaction in 50 mM sodium phosphate buffer (pH 6.0) at 50° C. for 15 minutes. The activity of the recombinated mannanase (1 IU) to the mannan substrate was defined as the amount of the protein necessary for the secretion of 1 μmol reducing sugar under the standard analysis condition. Chromogenic PNP-sugar derivative was used to measure another degrading activity of the said recombinated enzyme. The enzyme activity of the recombinated mannanase to the chromogenic substrate was measured under the same conditions as set for the analysis of β-1,4-mannanase activity. The activity of the recombinated mannanase (1 IU) to the PNP-sugar derivative was defined as the amount of the protein necessary for the production of 1 μmol PNP under the standard analysis condition.

[2] = Analysis of degradation product (HPLC, LC-MS/MS); assay type: biochemical; conditions: 1 μg recombinant mannanase, pH 6.0, 30° C., 12 hours, LC area %
Method: Mannooligomer (M2˜M5, 1 mg/100 μl each) and locust bean gum (1.4 mg/100 μl) were reacted in 50 mM sodium phosphate buffer (pH 6.0) containing 1 μg of the recombinant mannanase at 30° C. for 12 hours, followed by investigation of the hydrolysate. HPLC (high performance liquid chromatography) was performed by using Finnigan Surveyor™ Modular HPLC systems (Thermo Electron Co.) equipped with Asahipak NH2P-50 2D column (5 μm, 2.0×150 mm, Shodex) ran by Xcalibur software (version 1.3 SP2, Thermo Electron Co.). Elution buffer A (0.05% pomalus acid/sterilized water) and elution buffer B (acetonitrile and methanol (7:3) containing 0.05% pomalus acid) were used as moving phases. LC-MS/MS (liquid chromatography/tandem mass spectrometry) was performed by using Finnigan LCQ Advantage MAX ion trap mass spectrometer (Thermo Electron Co.).

[3] = Analysis of degradation product (HPLC, LC-MS/MS); assay type: biochemical; conditions: substrate Ivory nut mannan; LC area %
Method: […] HPLC (high performance liquid chromatography) was performed by using Finnigan Surveyor™ Modular HPLC systems (Thermo Electron Co.) equipped with Asahipak NH2P-50 2D column (5 μm, 2.0×150 mm, Shodex) ran by Xcalibur software (version 1.3 SP2, Thermo Electron Co.). Elution buffer A (0.05% pomalus acid/sterilized water) and elution buffer B (acetonitrile and methanol (7:3) containing 0.05% pomalus acid) were used as moving phases. LC-MS/MS (liquid chromatography/tandem mass spectrometry) was performed by using Finnigan LCQ Advantage MAX ion trap mass spectrometer (Thermo Electron Co.).

[4] = chemicals 5 mM, 50 mM sodium phosphate buffer (pH 6.0), 50° C., 10 minutes, None = 100.0
[5] = metal ions 1 mM, chemicals 5 mM, 10 minutes
[6] = metal ions 1 mM, 50 mM sodium phosphate buffer (pH 6.0), 50° C., 10 minutes, None = 100.0
[7] = detergent 0.5%, 50 mM sodium phosphate buffer (pH 6.0), 50° C., 10 minutes, None = 100.0

O=C1CCC(=O)N1Br [N-Bromosuccinimide]
Relative activity (%) (mannanase; [4]): 0%
effect on the enzyme activity (mannanase; [5]): inactivated

O=S(=O)([O-])[O-].[Ni+2] [NiSO4]
Relative activity (%) (mannanase; [6]): 67.1%

CCN1C(=O)C=CC1=O [N-Ethylmaleimide]
Relative activity (%) (mannanase; [4]): 121.4%

O=C(O)CN(CCN(CC(=O)O)CC(=O)O)CC(=O)O [EDTA]
Relative activity (%) (mannanase; pH 6): 19.0%

[Cl][Cu][Cl] [CuCl2]
Relative activity (%) (mannanase; [6]): 16.7%

O=S(=O)([O-])[O-].[Fe+2] [FeSO4]
Relative activity (%) (mannanase; [6]): 42.2%

[Cl][Hg][Cl] [HgCl2]
effect on the enzyme activity (mannanase; [5]): inactivated
Relative activity (%) (mannanase; [6]): 0%

O=S(=O)([O-])[O-].[Mg+2] [MgSO4]
effect on the enzyme activity (mannanase; [5]): no effect
Relative activity (%) (mannanase; [6]): 99.9%

[Cl][Sn][Cl] [SnCl2]
effect on the enzyme activity (mannanase; [5]): no effect
Relative activity (%) (mannanase; [6]): 103.7%

[Cl-].[Cl-].[Co+2] [CoCl2]
Relative activity (%) (mannanase; pH 6): 111.9%

[Ba+2].[Cl-].[Cl-] [BaCl2]
Relative activity (%) (mannanase; [6]): 118.5%
increase of catalytic activity of the mannanase (mannanase; metal ions 1 mM, 10 minutes): approximately 1.2 fold

NC(=O)CI [Odoacetamide]
Relative activity (%) (mannanase; [4]): 113.3%

[Ca+2].[Cl-].[Cl-] [CaCl2]
Relative activity (%) (mannanase; [6]): 146.9%
increase of catalytic activity of the mannanase (mannanase; metal ions 1 mM, 10 minutes): at least 1.4 fold

Triton X-100
Relative activity (%) (mannanase; [7]): 98.9%

O=S(=O)([O-])[O-].[Zn+2] [ZnSO4]
Relative activity (%) (mannanase; [6]): 47.4%

CCCCCCCC/C=C\CCCCCCCC(=O)OCCOCC(OCCO)C1OCC(OCCO)C1OCCO (stereo not drawn) [Tween 80]
Relative activity (%) (mannanase; [7]): 103.5%

[Cl][Mn][Cl] [MnCl2]
Relative activity (%) (mannanase; [6]): 125.2%
increase of catalytic activity of the mannanase (mannanase; metal ions 1 mM, 10 minutes): approximately 1.2 fold

B1: rManH: Recombinant GH5 β-1,4-mannanase of Cellulosimicrobium sp. HY-13 produced in E. coli; SEQ. ID. NO: 1; approximately 44 kDa (protein)
chain: MRRLFAIVLGAVLALLAVPALAQGASVASDGFSVQDGRIYDANGNRFVPVGVNHAHAWYPSQTQSFADIRAAGANTVRVVLSGGRYGTSSAADVSAVVERCKQNQLVCILENHDTTGYGEDGSARSLASAAQYWTSIASVLRGQERYVMINIGNEPFGNSGFQSWTTDTIAAIRTLRAAGLDHTLVVDAPNWGQDWSFTMRDNAPTVAAADGNVVFSVHMYGVFDTGAEVRAYLDSFTSRGLPIMVGEFGDNHSDGNPDEATIMSYTRSQGIGMLGWSWSGNGGGVEYLDMVNGFSASSLTPWGQRFVHGADGLRARNAPAASVYGGDGGDGDGGAGTAPNGYPYCASASSDPDGDGWGWESSASCVVRGSSADTGSGGGSGSGSTAPNGYPYCASASSDPDGDGWGWESSASCVVRGSSADR
modifications: cellulosimicrobium
notes: Recombinant GH5 β-1,4-mannanase of Cellulosimicrobium sp; HY-13 produced in E. coli; ID; NO: 1; approximately 44 kDa
Specific activity ([1]; substrate Guar gum): 967 ± 18 IU mg^−1
Specific activity ([1]; substrate Insoluble ivory nut mannan): 14,711 ± 183 IU mg^−1
Specific activity ([1]; substrate Locust bean gum): 8,498 ± 105 IU mg^−1
Specific activity ([1]; toward insoluble ivory nut mannan): 14,711^c IU/mg
Specific activity ([1]; toward locust bean gum): 8,498^d IU/mg
Composition (%) of products formed by hydrolysis reaction: M1 ([2]; substrate Locust bean gum): 1.1%
Composition (%) of products formed by hydrolysis reaction: M2 ([2]; substrate Locust bean gum): 6.4%
Composition (%) of products formed by hydrolysis reaction: M3 ([2]; substrate Locust bean gum): 1.5%
Composition (%) of products formed by hydrolysis reaction: M4 ([2]; substrate Locust bean gum): 7.4%
Composition (%) of products formed by hydrolysis reaction: M5 ([2]; substrate Locust bean gum): 44.2%
Composition (%) of products formed by hydrolysis reaction: M6 ([2]; substrate Locust bean gum): 16.1%
Composition (%) of products formed by hydrolysis reaction: M7 ([2]; substrate Locust bean gum): 21.4%
Composition (%) of products formed by hydrolysis reaction: M8 ([2]; substrate Locust bean gum): 1.9%
Composition (%) of products formed by hydrolysis reaction: M2 ([2]; substrate M2): 100.0%
Composition (%) of products formed by hydrolysis reaction: M1 ([2]; substrate M3): 3.5%
Composition (%) of products formed by hydrolysis reaction: M2 ([2]; substrate M3): 60.1%
Composition (%) of products formed by hydrolysis reaction: M3 ([2]; substrate M3): 31.6%
Composition (%) of products formed by hydrolysis reaction: M4 ([2]; substrate M3): 4.0%
Composition (%) of products formed by hydrolysis reaction: M5 ([2]; substrate M3): 0.8%
Composition (%) of products formed by hydrolysis reaction: M1 ([2]; substrate M4): 3.9%
Composition (%) of products formed by hydrolysis reaction: M2 ([2]; substrate M4): 55.5%
Composition (%) of products formed by hydrolysis reaction: M3 ([2]; substrate M4): 28.8%
Composition (%) of products formed by hydrolysis reaction: M4 ([2]; substrate M4): 9.9%
Composition (%) of products formed by hydrolysis reaction: M5 ([2]; substrate M4): 1.9%
Composition (%) of products formed by hydrolysis reaction: M1 ([2]; substrate M5): 4.1%
Composition (%) of products formed by hydrolysis reaction: M2 ([2]; substrate M5): 46.9%
Composition (%) of products formed by hydrolysis reaction: M3 ([2]; substrate M5): 21.8%
Composition (%) of products formed by hydrolysis reaction: M4 ([2]; substrate M5): 16.6%
Composition (%) of products formed by hydrolysis reaction: M5 ([2]; substrate M5): 7.9%
Composition (%) of products formed by hydrolysis reaction: M6 ([2]; substrate M5): 2.8%
Composition (%) of products formed by hydrolysis reaction: M7 ([2]; substrate M5): 0.9%
Composition (%) of products formed by hydrolysis reaction: M1 [3]: 3.3%
Composition (%) of products formed by hydrolysis reaction: M2 [3]: 17.5%
Composition (%) of products formed by hydrolysis reaction: M3 [3]: 13.9%
Composition (%) of products formed by hydrolysis reaction: M4 [3]: 25.2%
Composition (%) of products formed by hydrolysis reaction: M5 [3]: 19.7%
Composition (%) of products formed by hydrolysis reaction: M6 [3]: 12.9%
Composition (%) of products formed by hydrolysis reaction: M7 [3]: 7.5%
Composition (%) of products formed by hydrolysis reaction: M8 [3]: 2.9%
